Assay results: US20260242478A1 (published 2026)
Where no end group is shown, it is not given here.

Assays:
PSMA Fab [1] = biological target: T1, PSMA Fab; assay: phage ELISA; biotinylated PSMA Fab on neutravidin plate, clonal phage supernatant, anti-M13 HRP detection, blocking buffer alone
T1 construct: also called Anti-PSMA Fab; 006 PSMA Fab
Experimental: (§1) Clonal phage were harvested as crude supernatants and screened via standard ELISAs. […] Prior to the addition of clonal phage. wells were incubated with blocking buffer and PSMA antigen or blocking buffer alone. Without washing or aspirating, clonal phage supernatants were then added to the wells and incubated for a short time. Wells were then washed followed by detection of bound phage using a horse radish conjugated anti-M13 antibody.

PSMA Fab [2] = biological target: T1, PSMA Fab; assay: phage ELISA; biotinylated PSMA Fab on neutravidin plate pre-incubated with PSMA antigen as competitor, anti-M13 HRP detection;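 further: crude clonal phage supernatants tested, compared against control wells pre-incubated with blocking buffer only, without PSMA antigen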
Experimental: as §1

PSMA Fab [3] = biological target: T2, PSMA Fab; assay: clonal phage ELISA; biotinylated PSMA Fab on neutravidin plate; wells pre-incubated with PSMA antigen as competitor; anti-M13-HRP detection
T2 construct: also called Anti-PSMA Fab; 006 PSMA Fab
Experimental: as §1

PSMA Fab [4] = biological target: T2, PSMA Fab; assay: clonal phage ELISA; biotinylated PSMA Fab on neutravidin plate; anti-M13-HRP detection; no PSMA antigen
Experimental: as §1

B1: Phage-2368 (peptide)
peptide: DGVWCVPQWMCDGY
notes: Peptide-180 library clone, tested as clonal phage supernatant
- Phage binding ELISA signal, Anti-PSMA Fab (PSMA Fab [1]): 1.4
- Phage binding ELISA signal, Anti-PSMA Fab in the presence of PSMA antigen (PSMA Fab [2]): 0.0722

B2: Phage-2371 (peptide)
peptide: VDKWCIPSWMCEFY
notes: as for B1
- Phage binding ELISA signal, Anti-PSMA Fab (PSMA Fab [1]): 1.4
- Phage binding ELISA signal, Anti-PSMA Fab in the presence of PSMA antigen (PSMA Fab [2]): 0.0767

Binder: VETWCIPHWMCAGF (cysteine pairing not given here; also: displayed as fusion to phage pIII) [Phage-2453]
- Phage binding ELISA signal, Anti-PSMA Fab with PSMA antigen (PSMA Fab [3]): 0.0685
- Phage binding ELISA signal, Anti-PSMA Fab (PSMA Fab [4]): 1.27

B3: Phage-2367 (peptide)
peptide: YEKWCIPAWMCHVA
notes: as for B1
- Phage binding ELISA signal, Anti-PSMA Fab (PSMA Fab [1]): 1.41
- Phage binding ELISA signal, Anti-PSMA Fab in the presence of PSMA antigen (PSMA Fab [2]): 0.0747

B4: Phage-2366 (peptide)
peptide: INKWCIPEWMCAAM
notes: as for B1
- Phage binding ELISA signal, Anti-PSMA Fab (PSMA Fab [1]): 1.41
- Phage binding ELISA signal, Anti-PSMA Fab in the presence of PSMA antigen (PSMA Fab [2]): 0.0668

Binder: EMKWCTPPWMCTEL [Phage-2460]
- Phage binding ELISA signal, Anti-PSMA Fab with PSMA antigen (PSMA Fab [3]): 0.0656
- Phage binding ELISA signal, Anti-PSMA Fab (PSMA Fab [4]): 1.26

B5: Phage-2370 (peptide)
peptide: LEKWCIPSWMCSTL
notes: as for B1
- Phage binding ELISA signal, Anti-PSMA Fab (PSMA Fab [1]): 1.4
- Phage binding ELISA signal, Anti-PSMA Fab in the presence of PSMA antigen (PSMA Fab [2]): 0.0829

B6: Phage-2364 (peptide)
peptide: GANLCIPPWMCLSS
notes: as for B1
- Phage binding ELISA signal, Anti-PSMA Fab (PSMA Fab [1]): 1.41
- Phage binding ELISA signal, Anti-PSMA Fab in the presence of PSMA antigen (PSMA Fab [2]): 0.0789

Binder: DTNWCRPAWMCAFA (cysteine pairing not given here; also: displayed as fusion to phage pIII) [Phage-2458]
- Phage binding ELISA signal, Anti-PSMA Fab with PSMA antigen (PSMA Fab [3]): 0.0649
- Phage binding ELISA signal, Anti-PSMA Fab (PSMA Fab [4]): 1.27

Binder: GEKWCIPSWMCVAV [Phage-2456]
- Phage binding ELISA signal, Anti-PSMA Fab with PSMA antigen (PSMA Fab [3]): 0.0549
- Phage binding ELISA signal, Anti-PSMA Fab (PSMA Fab [4]): 1.27

Binder: SVKMCIPEWMCENI [Phage-2452]
- Phage binding ELISA signal, Anti-PSMA Fab with PSMA antigen (PSMA Fab [3]): 0.0646
- Phage binding ELISA signal, Anti-PSMA Fab (PSMA Fab [4]): 1.28

B7: Phage-2369 (peptide)
peptide: GLGWCTPTWMCEGF
notes: as for B1
- Phage binding ELISA signal, Anti-PSMA Fab (PSMA Fab [1]): 1.4
- Phage binding ELISA signal, Anti-PSMA Fab in the presence of PSMA antigen (PSMA Fab [2]): 0.0727

Binder: SVHECRPLWMCQGF [Phage-2455]
- Phage binding ELISA signal, Anti-PSMA Fab with PSMA antigen (PSMA Fab [3]): 0.073
- Phage binding ELISA signal, Anti-PSMA Fab (PSMA Fab [4]): 1.27

Binder: WDHLCKPRWMCDGI (cysteine pairing not given here; also: displayed as fusion to phage pIII) [Phage-2451]
- Phage binding ELISA signal, Anti-PSMA Fab with PSMA antigen (PSMA Fab [3]): 0.0744
- Phage binding ELISA signal, Anti-PSMA Fab (PSMA Fab [4]): 1.28

B8: Phage-2365 (peptide)
peptide: AEKLCKPAWMCNNM
notes: as for B1
- Phage binding ELISA signal, Anti-PSMA Fab (PSMA Fab [1]): 1.41
- Phage binding ELISA signal, Anti-PSMA Fab in the presence of PSMA antigen (PSMA Fab [2]): 0.0752

Binder: VEILCKPAWMCRLD [Phage-2457]
- Phage binding ELISA signal, Anti-PSMA Fab with PSMA antigen (PSMA Fab [3]): 0.062
- Phage binding ELISA signal, Anti-PSMA Fab (PSMA Fab [4]): 1.27

B9: Phage-2372 (peptide)
peptide: QVQWCIPPWMCLED
notes: as for B1
- Phage binding ELISA signal, Anti-PSMA Fab (PSMA Fab [1]): 1.4
- Phage binding ELISA signal, Anti-PSMA Fab in the presence of PSMA antigen (PSMA Fab [2]): 0.0887

Binder: TQMWCIPFWMCEVQ [Phage-2459]
- Phage binding ELISA signal, Anti-PSMA Fab with PSMA antigen (PSMA Fab [3]): 0.0885
- Phage binding ELISA signal, Anti-PSMA Fab (PSMA Fab [4]): 1.27
